Measurements from the MegaScale stability set (Tsuboyama et al. 2023).

B1: 2K2A (parent)
chain: ELREAFRLYDKEGNGYISTDVMREILAELDETLSSEDLDAMIDEIDADGSGTVDFEEFMGVMT

Variants of: B1
Test: folding stability dG (cDNA display proteolysis); higher = more stable
Conditions: PBS, room temperature

Variant	folding stability dG
E44Y	2.02 kcal/mol
E44P	0.7 kcal/mol
E44G	1.85 kcal/mol
E44Q	2.06 kcal/mol
D54V	1.38 kcal/mol
D54N	2.26 kcal/mol
D54W	1.72 kcal/mol
D54P	1.14 kcal/mol
V61S	1.26 kcal/mol
V61I	2.12 kcal/mol
V61T	1.21 kcal/mol
V61E	0.207 kcal/mol
M59A	2.04 kcal/mol
D37K	1.71 kcal/mol
E4I	1.43 kcal/mol
E4V	1.39 kcal/mol
E4Q	1.46 kcal/mol
K11I	2.01 kcal/mol
K11D	0.997 kcal/mol
K11P	1.81 kcal/mol
K11N	1.4 kcal/mol
K11V	2.1 kcal/mol
K11S	1.74 kcal/mol
M22T	0.155 kcal/mol

Variant	folding stability dG
M22I	1.46 kcal/mol
M22W	0.847 kcal/mol
T52M	1.74 kcal/mol
T52V	1.55 kcal/mol
T52A	1.11 kcal/mol
T52G	1.02 kcal/mol
A5Q	2.3 kcal/mol
A5P	0.29 kcal/mol
A5S	1.39 kcal/mol
R7Y	1.67 kcal/mol
R7A	2.09 kcal/mol
L2W	2.66 kcal/mol
L2I	1.51 kcal/mol
R23Q	-0.482 kcal/mol
R23F	0.124 kcal/mol
L8V	2.07 kcal/mol
F58M	0.426 kcal/mol
F58Y	1.6 kcal/mol
L29S	1.32 kcal/mol
L29D	0.372 kcal/mol
L29F	1.91 kcal/mol
F6W	2.18 kcal/mol
F6M	0.623 kcal/mol
F6K	0.192 kcal/mol

Variant	folding stability dG
F6V	0.529 kcal/mol
F6R	0.468 kcal/mol
F6A	0.316 kcal/mol
M41Y	1.61 kcal/mol
M41F	1.5 kcal/mol
M41T	0.556 kcal/mol
E24P	-0.167 kcal/mol
E24Y	2.2 kcal/mol
E24G	2.08 kcal/mol
E24L	2.55 kcal/mol
S34L	1.21 kcal/mol
I25K	0.177 kcal/mol
G15Q	0.45 kcal/mol
G15M	0.662 kcal/mol
G15R	0.333 kcal/mol
L38F	0.593 kcal/mol
L38E	-0.551 kcal/mol
L38A	0.262 kcal/mol
L38D	-0.787 kcal/mol
E56W	1.99 kcal/mol
E56V	1.75 kcal/mol
E56R	1.78 kcal/mol
G49W	0.635 kcal/mol
G49E	1.26 kcal/mol

Variant	folding stability dG
I45R	0.158 kcal/mol
I45V	1.57 kcal/mol
F55Q	0.578 kcal/mol
E57P	0.106 kcal/mol
E57R	2.48 kcal/mol
E57S	2.39 kcal/mol
E57A	2.47 kcal/mol
E57M	2.37 kcal/mol
T63S	1.88 kcal/mol
T63D	1.26 kcal/mol
G60S	2.29 kcal/mol
G60E	1.85 kcal/mol
I17W	0.006 kcal/mol
I17F	0.818 kcal/mol
D48F	1.39 kcal/mol
S35Y	1.53 kcal/mol
S35A	1.92 kcal/mol
S35F	1.48 kcal/mol
S35G	1.78 kcal/mol
E31G	2.17 kcal/mol
S18G	1.52 kcal/mol
S18V	0.765 kcal/mol
E1Q	2.08 kcal/mol
E1R	2.25 kcal/mol

Variant	folding stability dG
L26R	-0.879 kcal/mol
R3A	1.99 kcal/mol
R3M	1.93 kcal/mol
R3V	1.77 kcal/mol
R3P	0.63 kcal/mol
G51F	0.853 kcal/mol
G51R	1.35 kcal/mol
G51C	0.991 kcal/mol
G51S	0.834 kcal/mol
G51P	-0.745 kcal/mol
G51A	0.849 kcal/mol
D30V	1.55 kcal/mol
D30L	1.93 kcal/mol
D30E	0.964 kcal/mol
Y9N	0.71 kcal/mol
Y9V	0.891 kcal/mol
Y9W	2 kcal/mol
Y9Q	0.85 kcal/mol
G13K	1.14 kcal/mol
G13R	1.01 kcal/mol
D43N	2.2 kcal/mol
D43I	2.04 kcal/mol
T19F	2.18 kcal/mol
T19C	1.39 kcal/mol

Variant	folding stability dG
T19D	0.211 kcal/mol
T19H	1.01 kcal/mol
M62Q	0.539 kcal/mol
M62W	1.83 kcal/mol
M62H	0.762 kcal/mol
E12S	1.34 kcal/mol
E12T	1.32 kcal/mol
E12Y	1.2 kcal/mol
A27H	1.94 kcal/mol
A27C	1.47 kcal/mol
E36Y	1.81 kcal/mol
E36P	1.04 kcal/mol
N14A	1.55 kcal/mol
N14C	1.43 kcal/mol
Y16S	1.03 kcal/mol
I42D	-0.854 kcal/mol
I42F	1.08 kcal/mol
V21H	1.77 kcal/mol
E28K	2.52 kcal/mol
E28D	1.78 kcal/mol
E28Y	1.83 kcal/mol
E28T	2.03 kcal/mol
D46V	0.984 kcal/mol
D20L	2.35 kcal/mol

Variant	folding stability dG
D20C	1.9 kcal/mol
D20H	2.05 kcal/mol
D39G	0.971 kcal/mol
D39I	1.33 kcal/mol
D39N	1.58 kcal/mol
D39H	1.13 kcal/mol
V53Q	-0.515 kcal/mol
V53H	0.004 kcal/mol
V53F	1.07 kcal/mol
L33Y	1.43 kcal/mol
L33A	1.02 kcal/mol
L33T	0.695 kcal/mol
T32A	1.5 kcal/mol
T32V	0.877 kcal/mol
T32R	1.74 kcal/mol
T32G	1.67 kcal/mol
A40Q	1.8 kcal/mol
A40D	1.4 kcal/mol
A40Y	1.71 kcal/mol
A40P	-0.715 kcal/mol
S50M	1.29 kcal/mol
S50E	0.94 kcal/mol
S50G	1.05 kcal/mol
